For 36 sequences, protein stability index results are on record in the supplement of paper PMC10567573.

± gives the standard deviation.

This data set can be described thus: protein stability index of a GFP-peptide fusion (GPS, HEK-293T) (PSI 1-6); higher = more stable. The settings on record: c terminus: a fixed tail appended.
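Note: 24-mer peptide tiles fused after GFP, lentivirally expressed, FACS-sorted into six equal bins by GFP/DsRed ratio, decoded by Illumina sequencing, PSI is the read-weighted mean bin number.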

Take RDTFYKEQLERIERKNAEMYKLSS [CHCHD6]: the protein stability index came to 3.5 ± 0.12 (treatment: DMSO) and 3.79 ± 0.43 (treatment: MLN4924 1 uM, 8 h).
Consider TTLLKCYLHTNVALVAPLLRLENN [VPS39], for which the protein stability index came out at 2.68 ± 0.54 (treatment: DMSO) and 2.77 ± 0.57 (treatment: MLN4924 1 uM, 8 h).
Sequence EDSVFEERPERRSGPPASYCAKLC [C8orf76] showed a protein stability index (treatment: DMSO) of 4.44 ± 0.29 and a protein stability index (treatment: MLN4924 1 uM, 8 h) of 4.6 ± 0.07.
On to KYVVSGFDVDHGICIMDAENITTV [WDR88], for which the protein stability index reads like this: (treatment: DMSO) 2.28 ± 0.32; (treatment: MLN4924 1 uM, 8 h) 2.25 ± 0.25.
The like results for SSTTILVQWKEPEEPNGQIQGYRV [PTPRD] were, in that order, 2.91 ± 0.32 and 2.71 ± 0.46.
For INPYSNRESRILFSTWNLDHIIEK [DFFB], the protein stability index amounted to 2.54 ± 0.1 (treatment: DMSO) and 2.61 ± 0.099 (treatment: MLN4924 1 uM, 8 h).
The like results for SLIRKHAQTFIALCATDFKFAMYP [CCND2] were, in that order, 3.01 ± 0.18 and 2.97 ± 0.51.
The like results for YLIMIFLGLYINFRHLYKQRRRRY [HACD3] were, in that order, 2.55 ± 0.86 and 2.53 ± 0.63.
The like results for TPGIDLTRVLAEMREQYEAMAERN [KRT13] were, in that order, 4.13 ± 0.49 and 4.4 ± 0.32.
Take CASDEGEVIVFGGCANNLLVHHRA [KLHDC2]: the protein stability index (treatment: DMSO) stood at 2.6 ± 0.35 and the protein stability index (treatment: MLN4924 1 uM, 8 h) amounted to 2.27 ± 0.29.
In the same order, the values of YSAEQFCVSRNSHLTSVTSESEQE [CD207] are 5.23 ± 0.21 and 5.13 ± 0.32.
In the same order, the values of FLRCVTAALIYFAISITAIAKYSD [CMTM3] are 3.41 ± 0.29 and 3.43 ± 0.32.
The like results for DRDMFFKICESLNVPVDDSLVKEL [EFHC1] were, in that order, 3.22 ± 0.29 and 3.3 ± 0.18.
As for EFLRVQEERILHQQVKCIITEEKV [VPS39], the protein stability index was determined as 3.08 ± 0.26 (treatment: DMSO) and 2.92 ± 0.3 (treatment: MLN4924 1 uM, 8 h).
The like results for PCLLGSRVFSQGSHAWEVALGGLQ [TRIM35] were, in that order, 2.36 ± 0.15 and 2.35 ± 0.19.
Turning to TPVMEGYVEVKEGKTWKQICDKHW [LOXL2], the protein stability index reads like this: (treatment: DMSO) 3.28 ± 0.32; (treatment: MLN4924 1 uM, 8 h) 3.51 ± 0.37.
In the same order, the values of SRRASESSLSSESSESSDAGLCMD [CDC25B] are 5.06 ± 0.39 and 5.33 ± 0.18.
In the same order, the values of EEDNELNLPNLAAAYSSILSSLGE [GCH1] are 3.68 ± 0.31 and 3.73 ± 0.16.
In the same order, the values of QVGAKGDTANEIGQVLHFENVKDV [SERPINB5] are 4.94 ± 0.37 and 5.19 ± 0.24.
For the sequence QLPPASRCVLVFEQVRFLMKSYSF [SOAT2], the protein stability index (treatment: DMSO) was determined as 2.71 ± 0.67 and the protein stability index (treatment: MLN4924 1 uM, 8 h) was 1.95 ± 0.1.
Take VPQAPRRLRASFSRKPSLKGNRED [PLEKHN1]: the protein stability index stood at 4.71 ± 0.097 (treatment: DMSO) and 4.83 ± 0.13 (treatment: MLN4924 1 uM, 8 h).
Turning to AQTNPTPGSLGPWKITIYDQENFQ [CRYBA1], the protein stability index was 3.18 ± 0.41 (treatment: DMSO) and 3.3 ± 0.2 (treatment: MLN4924 1 uM, 8 h).
As to RGDPAHAGLAELGHRLAQKLQGLE [PBXIP1], the protein stability index reads like this: (treatment: DMSO) 3.04 ± 0.34; (treatment: MLN4924 1 uM, 8 h) 3.29 ± 0.32.
In the case of PPLNPTSWWADLRALARNLIFGLI [SPNS1], the protein stability index was found to be 4.75 ± 0.3 (treatment: DMSO) and 4.74 ± 0.32 (treatment: MLN4924 1 uM, 8 h).
Consider FIVIDAMLERIKHEKTVDIYGHVT [PTPRD], for which the protein stability index is, setting by setting: (treatment: DMSO) 3.04 ± 1.2; (treatment: MLN4924 1 uM, 8 h) 2.5 ± 1.1.
In the case of AGKWRSYKGELFDKTPVLLTDYPV [MYORG], the protein stability index runs as follows: (treatment: DMSO) 2.32 ± 0.21; (treatment: MLN4924 1 uM, 8 h) 2.43 ± 0.25.
The like results for TFLKAFPLMGETQERERVLTHFSR [PSD2] were, in that order, 2.45 ± 0.21 and 2.63 ± 0.39.
The like results for HSIINALKAKLQMTEAALALSEQK [LRRC45] were, in that order, 2.63 ± 0.087 and 2.74 ± 0.27.
The like results for ERAVKRMRHLSTGTMTGLAIQYAL [MATN2] were, in that order, 2.39 ± 0.44 and 2.22 ± 0.32.
In the case of SRIKVLETSYQQREERLRRENEEL [FBF1], the protein stability index (treatment: DMSO) came to 4.9 ± 0.18 and the protein stability index (treatment: MLN4924 1 uM, 8 h) amounted to 5.07 ± 0.26.
The like results for VLRLCCKKLKIFAMPMQDIKMILK [PRAME] were, in that order, 2.81 ± 0.38 and 2.73 ± 0.52.
In the same order, the values of ASVATWAIFVHRVGQPSIGGKLSP [CTBP1-DT] are 2.65 ± 0.9 and 2.33 ± 0.33.
As to NHSLETCETTLFALRMATWNQILD [PTGFR], the protein stability index is 2.25 ± 0.52 (treatment: DMSO) and 2 ± 0.27 (treatment: MLN4924 1 uM, 8 h).
On to KDHSSSRPSSPRPQKASPNGSISS [BTBD10], for which the protein stability index is, setting by setting: (treatment: DMSO) 5.1 ± 0.42; (treatment: MLN4924 1 uM, 8 h) 4.71 ± 0.97.
The like results for NARGASIFSVTALDPDSKENAQII [PCDHGA10] were, in that order, 3.75 ± 0.12 and 3.97 ± 0.24.
For PVGQEIVIPFKVDTILKYLKDHFS [IQUB], the protein stability index runs as follows: (treatment: DMSO) 2.33 ± 0.73; (treatment: MLN4924 1 uM, 8 h) 1.95 ± 0.39.
